In paper PMC10786891, “Massively parallel profiling of RNA-targeting CRISPR-Cas13d”:

T1: EsCas13d, nuclease-dead (Eubacterium siraeum, UniProt B0MS50, R295A;H300A;R849A;H854A)
T1 sequence: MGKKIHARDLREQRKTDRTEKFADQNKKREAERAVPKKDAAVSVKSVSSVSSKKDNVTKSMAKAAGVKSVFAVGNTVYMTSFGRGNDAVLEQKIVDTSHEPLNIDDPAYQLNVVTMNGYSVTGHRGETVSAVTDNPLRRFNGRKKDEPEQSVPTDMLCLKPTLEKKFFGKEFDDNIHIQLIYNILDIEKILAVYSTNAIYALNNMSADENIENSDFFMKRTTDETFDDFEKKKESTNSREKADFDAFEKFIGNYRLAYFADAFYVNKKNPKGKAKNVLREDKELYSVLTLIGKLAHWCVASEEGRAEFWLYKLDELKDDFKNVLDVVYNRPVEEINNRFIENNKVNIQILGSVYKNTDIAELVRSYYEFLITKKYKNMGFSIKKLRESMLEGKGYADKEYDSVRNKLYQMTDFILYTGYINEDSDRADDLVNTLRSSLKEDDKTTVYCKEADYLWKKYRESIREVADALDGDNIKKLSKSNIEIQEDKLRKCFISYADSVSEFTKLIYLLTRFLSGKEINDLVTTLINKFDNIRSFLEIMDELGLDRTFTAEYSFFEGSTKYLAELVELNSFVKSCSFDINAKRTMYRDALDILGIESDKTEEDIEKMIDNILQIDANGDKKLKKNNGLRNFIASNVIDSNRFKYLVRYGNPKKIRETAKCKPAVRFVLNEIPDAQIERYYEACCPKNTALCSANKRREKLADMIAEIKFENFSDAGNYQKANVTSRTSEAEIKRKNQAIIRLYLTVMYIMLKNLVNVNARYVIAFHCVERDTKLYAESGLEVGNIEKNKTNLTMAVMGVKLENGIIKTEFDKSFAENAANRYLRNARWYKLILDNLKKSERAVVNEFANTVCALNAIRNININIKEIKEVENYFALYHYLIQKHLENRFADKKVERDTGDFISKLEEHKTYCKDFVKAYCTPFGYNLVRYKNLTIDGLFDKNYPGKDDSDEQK


biological target: T1, EsCas13d, nuclease-dead; test: crRNA (strand 1, pre-loaded); Mg2+; 40 mM Tris-HCl pH 7.5, 150 mM NaCl, 6 mM MgCl2, 1 mM DTT, 0.1% Tween-20, 0.2 mg/ml BSA; 25 C; 10 min per concentration, then washed; details: tags: His6-TwinStrep-SUMO cleaved; N-terminal SNAP kept (SNAP-Surface 488); label: 3' end held by stalled T7 RNA polymerase

Binder | Kd [µM]
target 1 del7,del8 (mixed) RNA 1: CACCCGUGCAAAAAUGCAGGGGUCUAAAACUGAGCGGAUAACCUCUCUAUGG RNA 2: GGGAAUGGAUCCACAUCUACGAAUUCGUACCAUAGAGAGGUUACGCUCACCGAGAUCGGAAGAGCACACGU | 0.0106 ± 0.0007
target 1 insU 3' of 9,insG 3' of 3 (mixed) RNA 1: CACCCGUGCAAAAAUGCAGGGGUCUAAAACUGAGCGGAUAACCUCUCUAUGG RNA 2: GGGAAUGGAUCCACAUCUACGAAUUCGUACCAUAGAGAGGUUAUUCCGCUGCACCGAGAUCGGAAGAGCACACGU | 0.0127 ± 0.0006
target 1 insA 3' of 17,insC 3' of 10 (mixed) RNA 1: CACCCGUGCAAAAAUGCAGGGGUCUAAAACUGAGCGGAUAACCUCUCUAUGG RNA 2: GGGAAUGGAUCCACAUCUACGAAUUCGUACCAUAGAAGAGGUUCAUCCGCUCACCGAGAUCGGAAGAGCACACGU | 0.027 ± 0.006
target 1 G5U,A9C (mixed) RNA 1: CACCCGUGCAAAAAUGCAGGGGUCUAAAACUGAGCGGAUAACCUCUCUAUGG RNA 2: GGGAAUGGAUCCACAUCUACGAAUUCGUACCAUAGAGAGGUUCUCCUCUCACCGAGAUCGGAAGAGCACACGU | 0.06 ± 0.006
target 1 insC 3' of 20,insA 3' of 3 (mixed) RNA 1: CACCCGUGCAAAAAUGCAGGGGUCUAAAACUGAGCGGAUAACCUCUCUAUGG RNA 2: GGGAAUGGAUCCACAUCUACGAAUUCGUACCACUAGAGAGGUUAUCCGCUACACCGAGAUCGGAAGAGCACACGU | 0.00876 ± 0.00032
target 1 C4U,G12A (mixed) RNA 1: CACCCGUGCAAAAAUGCAGGGGUCUAAAACUGAGCGGAUAACCUCUCUAUGG RNA 2: GGGAAUGGAUCCACAUCUACGAAUUCGUACCAUAGAGAGAUUAUCCGUUCACCGAGAUCGGAAGAGCACACGU | 0.0237 ± 0.003
target 1 insG 3' of 8,insG 3' of 6 (mixed) RNA 1: CACCCGUGCAAAAAUGCAGGGGUCUAAAACUGAGCGGAUAACCUCUCUAUGG RNA 2: GGGAAUGGAUCCACAUCUACGAAUUCGUACCAUAGAGAGGUUAUGCCGGCUCACCGAGAUCGGAAGAGCACACGU | 0.00705 ± 0.00026
target 1 C6U,A9U (mixed) RNA 1: CACCCGUGCAAAAAUGCAGGGGUCUAAAACUGAGCGGAUAACCUCUCUAUGG RNA 2: GGGAAUGGAUCCACAUCUACGAAUUCGUACCAUAGAGAGGUUUUCUGCUCACCGAGAUCGGAAGAGCACACGU | 0.0082 ± 0.0004
target 1 G5C,U10A (mixed) RNA 1: CACCCGUGCAAAAAUGCAGGGGUCUAAAACUGAGCGGAUAACCUCUCUAUGG RNA 2: GGGAAUGGAUCCACAUCUACGAAUUCGUACCAUAGAGAGGUAAUCCCCUCACCGAGAUCGGAAGAGCACACGU | 0.0118 ± 0.0006
target 1 G15A,C22U (mixed) RNA 1: CACCCGUGCAAAAAUGCAGGGGUCUAAAACUGAGCGGAUAACCUCUCUAUGG RNA 2: GGGAAUGGAUCCACAUCUACGAAUUCGUAUCAUAGAAAGGUUAUCCGCUCACCGAGAUCGGAAGAGCACACGU | 0.0177 ± 0.0024
target 1 del3,del9 (mixed) RNA 1: CACCCGUGCAAAAAUGCAGGGGUCUAAAACUGAGCGGAUAACCUCUCUAUGG RNA 2: GGGAAUGGAUCCACAUCUACGAAUUCGUACCAUAGAGAGGUUUCCGCCACCGAGAUCGGAAGAGCACACGU | 0.04 ± 0.005
target 1 insU 3' of 18,insA 3' of 8 (mixed) RNA 1: CACCCGUGCAAAAAUGCAGGGGUCUAAAACUGAGCGGAUAACCUCUCUAUGG RNA 2: GGGAAUGGAUCCACAUCUACGAAUUCGUACCAUAUGAGAGGUUAUACCGCUCACCGAGAUCGGAAGAGCACACGU | 0.055 ± 0.004
target 1 insU 3' of 13,insU 3' of 12 (mixed) RNA 1: CACCCGUGCAAAAAUGCAGGGGUCUAAAACUGAGCGGAUAACCUCUCUAUGG RNA 2: GGGAAUGGAUCCACAUCUACGAAUUCGUACCAUAGAGAGUGUUUAUCCGCUCACCGAGAUCGGAAGAGCACACGU | 0.0118 ± 0.0013
target 1 insC 3' of 18,insU 3' of 15 (mixed) RNA 1: CACCCGUGCAAAAAUGCAGGGGUCUAAAACUGAGCGGAUAACCUCUCUAUGG RNA 2: GGGAAUGGAUCCACAUCUACGAAUUCGUACCAUACGAGUAGGUUAUCCGCUCACCGAGAUCGGAAGAGCACACGU | 0.082 ± 0.033
target 1 U8G,U10A (mixed) RNA 1: CACCCGUGCAAAAAUGCAGGGGUCUAAAACUGAGCGGAUAACCUCUCUAUGG RNA 2: GGGAAUGGAUCCACAUCUACGAAUUCGUACCAUAGAGAGGUAAGCCGCUCACCGAGAUCGGAAGAGCACACGU | 0.0197 ± 0.0012
target 1 G5C,G17C (mixed) RNA 1: CACCCGUGCAAAAAUGCAGGGGUCUAAAACUGAGCGGAUAACCUCUCUAUGG RNA 2: GGGAAUGGAUCCACAUCUACGAAUUCGUACCAUACAGAGGUUAUCCCCUCACCGAGAUCGGAAGAGCACACGU | 0.048 ± 0.006
target 1 insU 3' of 12,insC 3' of 11 (mixed) RNA 1: CACCCGUGCAAAAAUGCAGGGGUCUAAAACUGAGCGGAUAACCUCUCUAUGG RNA 2: GGGAAUGGAUCCACAUCUACGAAUUCGUACCAUAGAGAGGUUCUAUCCGCUCACCGAGAUCGGAAGAGCACACGU | 0.025 ± 0.004
target 1 insA 3' of 21,insC 3' of 10 (mixed) RNA 1: CACCCGUGCAAAAAUGCAGGGGUCUAAAACUGAGCGGAUAACCUCUCUAUGG RNA 2: GGGAAUGGAUCCACAUCUACGAAUUCGUACCAAUAGAGAGGUUCAUCCGCUCACCGAGAUCGGAAGAGCACACGU | 0.057 ± 0.008
target 1 C4A,C6G (mixed) RNA 1: CACCCGUGCAAAAAUGCAGGGGUCUAAAACUGAGCGGAUAACCUCUCUAUGG RNA 2: GGGAAUGGAUCCACAUCUACGAAUUCGUACCAUAGAGAGGUUAUCGGAUCACCGAGAUCGGAAGAGCACACGU | 0.0054 ± 0.0004
target 1 insU 3' of 20,insC 3' of 14 (mixed) RNA 1: CACCCGUGCAAAAAUGCAGGGGUCUAAAACUGAGCGGAUAACCUCUCUAUGG RNA 2: GGGAAUGGAUCCACAUCUACGAAUUCGUACCAUUAGAGACGGUUAUCCGCUCACCGAGAUCGGAAGAGCACACGU | 0.051 ± 0.016
target 1 insU 3' of 22,insG 3' of 18 (mixed) RNA 1: CACCCGUGCAAAAAUGCAGGGGUCUAAAACUGAGCGGAUAACCUCUCUAUGG RNA 2: GGGAAUGGAUCCACAUCUACGAAUUCGUACUCAUAGGAGAGGUUAUCCGCUCACCGAGAUCGGAAGAGCACACGU | 0.084 ± 0.017
target 1 G12U,A16G (mixed) RNA 1: CACCCGUGCAAAAAUGCAGGGGUCUAAAACUGAGCGGAUAACCUCUCUAUGG RNA 2: GGGAAUGGAUCCACAUCUACGAAUUCGUACCAUAGGGAGUUUAUCCGCUCACCGAGAUCGGAAGAGCACACGU | 0.043 ± 0.005
target 1 insA 3' of 15,insU 3' of 9 (mixed) RNA 1: CACCCGUGCAAAAAUGCAGGGGUCUAAAACUGAGCGGAUAACCUCUCUAUGG RNA 2: GGGAAUGGAUCCACAUCUACGAAUUCGUACCAUAGAGAAGGUUAUUCCGCUCACCGAGAUCGGAAGAGCACACGU | 0.0244 ± 0.0031
target 1 C2G,C4G (mixed) RNA 1: CACCCGUGCAAAAAUGCAGGGGUCUAAAACUGAGCGGAUAACCUCUCUAUGG RNA 2: GGGAAUGGAUCCACAUCUACGAAUUCGUACCAUAGAGAGGUUAUCCGGUGACCGAGAUCGGAAGAGCACACGU | 0.007 ± 0.0004
